# In patent US20220402983A1 (Janssen / Centocor, published 2022):
# Bridges are numbered along the chain shown (N, C = ends). [ ]: non-standard residue; d: D form. The star is where a group is joined. Trp(7-Me) = Cc1cccc2c(C[C@H](N)C(=O)O)c[nH]c12; 2Nal = N[C@@H](Cc1ccc2ccccc2c1)C(=O)O; AEF = NCCOc1ccc(C[C@H](N)C(=O)O)cc1; αMeY = C[C@](N)(Cc1ccc(O)cc1)C(=O)O; αMeF = C[C@](N)(Cc1ccccc1)C(=O)O; αMeE = C[C@](N)(CCC(=O)O)C(=O)O; Cit = NC(=O)NCCC[C@H](N)C(=O)O; αMeL = CC(C)C[C@](C)(N)C(=O)O; Pen = CC(C)(S)[C@H](N)C(=O)O; αMeK = C[C@](N)(CCCCN)C(=O)O; Ac6c = NC1(C(=O)O)CCCCC1; Thp = NC1(C(=O)O)CCOCC1; Abu = CC[C@H](N)C(=O)O; Aib = CC(C)(N)C(=O)O; Piv = CC(C)(C)C(=O)*; Tfa = O=C(C(F)(F)F)*
# T1: human IL-23R (interleukin-23 receptor) (human, UniProt Q5VWK5 24-629)
# T1 sequence (looked up): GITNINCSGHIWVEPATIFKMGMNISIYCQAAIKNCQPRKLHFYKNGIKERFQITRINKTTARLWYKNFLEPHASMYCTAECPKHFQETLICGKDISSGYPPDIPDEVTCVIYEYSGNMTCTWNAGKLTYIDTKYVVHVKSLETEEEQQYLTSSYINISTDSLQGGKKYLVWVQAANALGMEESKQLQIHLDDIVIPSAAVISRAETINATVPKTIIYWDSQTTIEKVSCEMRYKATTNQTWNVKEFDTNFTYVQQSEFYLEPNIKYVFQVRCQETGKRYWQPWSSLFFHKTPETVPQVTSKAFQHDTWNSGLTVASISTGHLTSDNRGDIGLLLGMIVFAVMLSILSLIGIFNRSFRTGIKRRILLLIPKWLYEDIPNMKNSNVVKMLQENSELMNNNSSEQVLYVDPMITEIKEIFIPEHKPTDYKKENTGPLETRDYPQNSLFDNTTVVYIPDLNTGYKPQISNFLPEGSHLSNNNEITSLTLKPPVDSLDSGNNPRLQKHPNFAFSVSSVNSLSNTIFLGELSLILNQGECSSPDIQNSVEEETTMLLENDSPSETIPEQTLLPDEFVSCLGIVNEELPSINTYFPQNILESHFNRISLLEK
# B1: Compound No. 149 (peptide)
# peptide: Ac-[dR][Pen]NT[Trp(7-Me)][Cit][Pen][AEF][2Nal][αMeL]EN[αMeF]-NH2
# modifications: disulfide 2-7
# SMILES: CC(=O)N[C@H](CCCNC(=N)N)C(=O)N[C@@H]1C(=O)N[C@@H](CC(N)=O)C(=O)N[C@@H]([C@@H](C)O)C(=O)N[C@@H](Cc2c[nH]c3c(C)cccc23)C(=O)N[C@@H](CCCNC(N)=O)C(=O)N[C@H](C(=O)N[C@@H](Cc2ccc(OCCN)cc2)C(=O)N[C@@H](Cc2ccc3ccccc3c2)C(=O)N[C@@](C)(CC(C)C)C(=O)N[C@@H](CCC(=O)O)C(=O)N[C@@H](CC(N)=O)C(=O)N[C@@](C)(Cc2ccccc2)C(N)=O)C(C)(C)SSC1(C)C
# B2: Compound No. 142 (peptide)
# peptide: PentCO-[dR][Pen]NT[Trp(7-Me)]K(Ac)[Pen][AEF][2Nal][Thp]EN[αMeF]-NH2
# modifications: disulfide 2-7
# B3: Compound No. 202 (peptide)
# peptide: Ac-[Pen]NT[Trp(7-Me)][Cit][Pen][AEF][2Nal][αMeK]K(Ac)N[Aib][dY]-NH2
# modifications: disulfide 1-6
# SMILES: CC(=O)NCCCC[C@H](NC(=O)[C@](C)(CCCCN)NC(=O)[C@H](Cc1ccc2ccccc2c1)NC(=O)[C@H](Cc1ccc(OCCN)cc1)NC(=O)[C@H]1NC(=O)[C@H](CCCNC(N)=O)NC(=O)[C@H](Cc2c[nH]c3c(C)cccc23)NC(=O)[C@H]([C@@H](C)O)NC(=O)[C@H](CC(N)=O)NC(=O)[C@@H](NC(C)=O)C(C)(C)SSC1(C)C)C(=O)N[C@@H](CC(N)=O)C(=O)NC(C)(C)C(=O)N[C@H](Cc1ccc(O)cc1)C(N)=O
# B4: Compound No. 150 (peptide)
# peptide: Ac-[dR][Pen]NT[Trp(7-Me)]K(Ac)[Pen][AEF][2Nal][Thp][αMeE]N[αMeY]-NH2
# modifications: disulfide 2-7
# SMILES: CC(=O)NCCCC[C@@H]1NC(=O)[C@H](Cc2c[nH]c3c(C)cccc23)NC(=O)[C@H]([C@@H](C)O)NC(=O)[C@H](CC(N)=O)NC(=O)[C@@H](NC(=O)[C@@H](CCCNC(=N)N)NC(C)=O)C(C)(C)SSC(C)(C)[C@@H](C(=O)N[C@@H](Cc2ccc(OCCN)cc2)C(=O)N[C@@H](Cc2ccc3ccccc3c2)C(=O)NC2(C(=O)N[C@@](C)(CCC(=O)O)C(=O)N[C@@H](CC(N)=O)C(=O)N[C@@](C)(Cc3ccc(O)cc3)C(N)=O)CCOCC2)NC1=O
# B5: Compound No. 141 (peptide)
# peptide: Ac-[Pen]NT[Trp(7-Me)]K(Ac)[Pen][AEF][2Nal][Thp]K(Piv)N[Thp]-NH2
# modifications: disulfide 1-6
# SMILES: CC(=O)NCCCC[C@@H]1NC(=O)[C@H](Cc2c[nH]c3c(C)cccc23)NC(=O)[C@H]([C@@H](C)O)NC(=O)[C@H](CC(N)=O)NC(=O)[C@@H](NC(C)=O)C(C)(C)SSC(C)(C)[C@@H](C(=O)N[C@@H](Cc2ccc(OCCN)cc2)C(=O)N[C@@H](Cc2ccc3ccccc3c2)C(=O)NC2(C(=O)N[C@@H](CCCCNC(=O)C(C)(C)C)C(=O)N[C@@H](CC(N)=O)C(=O)NC3(C(N)=O)CCOCC3)CCOCC2)NC1=O
# B6: Compound No. 139 (peptide)
# peptide: Ac-[Pen]NT[Trp(7-Me)]K(Ac)[Pen][AEF][2Nal][Thp]K(Piv)N[αMeF]-NH2
# modifications: disulfide 1-6
# SMILES: CC(=O)NCCCC[C@@H]1NC(=O)[C@H](Cc2c[nH]c3c(C)cccc23)NC(=O)[C@H]([C@@H](C)O)NC(=O)[C@H](CC(N)=O)NC(=O)[C@@H](NC(C)=O)C(C)(C)SSC(C)(C)[C@@H](C(=O)N[C@@H](Cc2ccc(OCCN)cc2)C(=O)N[C@@H](Cc2ccc3ccccc3c2)C(=O)NC2(C(=O)N[C@@H](CCCCNC(=O)C(C)(C)C)C(=O)N[C@@H](CC(N)=O)C(=O)N[C@@](C)(Cc3ccccc3)C(N)=O)CCOCC2)NC1=O
# B7: Compound No. 146 (peptide)
# peptide: FlagTag-[dR][Pen]NT[Trp(7-Me)]K(Ac)[Pen][AEF][2Nal][Thp]EN[Thp]-NH2
# modifications: disulfide 2-7; also: FlagTag sequence not given here
# B8: Compound No. 201 (peptide)
# peptide: Ac-[dR][Abu]QT[Trp(7-Me)]K(Ac)C[AEF][2Nal][αMeK]K(Ac)N[αMeF]-NH2
# modifications: thioether 2-7
# B9: Compound No. 140 (peptide)
# peptide: Ac-[Pen]NT[Trp(7-Me)]K(Ac)[Pen][AEF][2Nal][Thp]K(Tfa)N[Thp]-NH2
# modifications: disulfide 1-6
# SMILES: CC(=O)NCCCC[C@@H]1NC(=O)[C@H](Cc2c[nH]c3c(C)cccc23)NC(=O)[C@H]([C@@H](C)O)NC(=O)[C@H](CC(N)=O)NC(=O)[C@@H](NC(C)=O)C(C)(C)SSC(C)(C)[C@@H](C(=O)N[C@@H](Cc2ccc(OCCN)cc2)C(=O)N[C@@H](Cc2ccc3ccccc3c2)C(=O)NC2(C(=O)N[C@@H](CCCCNC(=O)C(F)(F)F)C(=O)N[C@@H](CC(N)=O)C(=O)NC3(C(N)=O)CCOCC3)CCOCC2)NC1=O
# B10: Compound No. 302 (peptide)
# peptide: Ac-[Pen]NT[Trp(7-Me)][Cit][Pen][AEF][2Nal][αMeK]K(Ac)N[Aib]-NH2
# modifications: disulfide 1-6
# SMILES: CC(=O)NCCCC[C@H](NC(=O)[C@](C)(CCCCN)NC(=O)[C@H](Cc1ccc2ccccc2c1)NC(=O)[C@H](Cc1ccc(OCCN)cc1)NC(=O)[C@H]1NC(=O)[C@H](CCCNC(N)=O)NC(=O)[C@H](Cc2c[nH]c3c(C)cccc23)NC(=O)[C@H]([C@@H](C)O)NC(=O)[C@H](CC(N)=O)NC(=O)[C@@H](NC(C)=O)C(C)(C)SSC1(C)C)C(=O)N[C@@H](CC(N)=O)C(=O)NC(C)(C)C(N)=O
# B11: Compound No. 301 (peptide)
# peptide: Ac-[dR][Abu]QTWQC[AEF][2Nal][Ac6c][αMeE]NF[Aib][αMeK]-NH2
# modifications: thioether 2-7
# B12: Compound No. 138 (peptide)
# peptide: Ac-[Pen]NT[Trp(7-Me)]K(Ac)[Pen][AEF][2Nal][Thp]K(Tfa)N[αMeF]-NH2
# modifications: disulfide 1-6
# SMILES: CC(=O)NCCCC[C@@H]1NC(=O)[C@H](Cc2c[nH]c3c(C)cccc23)NC(=O)[C@H]([C@@H](C)O)NC(=O)[C@H](CC(N)=O)NC(=O)[C@@H](NC(C)=O)C(C)(C)SSC(C)(C)[C@@H](C(=O)N[C@@H](Cc2ccc(OCCN)cc2)C(=O)N[C@@H](Cc2ccc3ccccc3c2)C(=O)NC2(C(=O)N[C@@H](CCCCNC(=O)C(F)(F)F)C(=O)N[C@@H](CC(N)=O)C(=O)N[C@@](C)(Cc3ccccc3)C(N)=O)CCOCC2)NC1=O
# B13: Compound No. 151 (peptide)
# peptide: Ac-[Pen]NT[Trp(7-Me)]K(Ac)[Pen][AEF][2Nal][αMeK]K(Ac)N[αMeY]-NH2
# modifications: disulfide 1-6
# SMILES: CC(=O)NCCCC[C@@H]1NC(=O)[C@H](Cc2c[nH]c3c(C)cccc23)NC(=O)[C@H]([C@@H](C)O)NC(=O)[C@H](CC(N)=O)NC(=O)[C@@H](NC(C)=O)C(C)(C)SSC(C)(C)[C@@H](C(=O)N[C@@H](Cc2ccc(OCCN)cc2)C(=O)N[C@@H](Cc2ccc3ccccc3c2)C(=O)N[C@@](C)(CCCCN)C(=O)N[C@@H](CCCCNC(C)=O)C(=O)N[C@@H](CC(N)=O)C(=O)N[C@@](C)(Cc2ccc(O)cc2)C(N)=O)NC1=O
# Target: T1, human IL-23R (interleukin-23 receptor)
# Assay: cell-based or functional assay
PBMC pSTAT3 IC50 (nM),"pStat3 HTRF (nM), IC50, DB cells IL23R pSTAT3 cell assay [nM]",Binder
2.3,,B1
4.9,,B2
,0.637,B3
4.7,,B4
3.7,,B5
6.6,,B6
8.9,,B7
,12.7,B8
2.6,,B9
7,,B10
24,,B11
7.6,,B12
5.7,,B13
